The record followed here is paper PMC3424314 (Journal of immunology (Baltimore, Md. : 1950), 2012).

This assay addresses CD40 receptor on a stable CHO cell line (Homo sapiens, UniProt P25942). Put plainly: flow cytometry on cells. In general terms: Flow cytometry measures light scatter and fluorescence of single cells or particles in a stream.

Chain of CD40 receptor on a stable CHO cell line (P25942 21-277): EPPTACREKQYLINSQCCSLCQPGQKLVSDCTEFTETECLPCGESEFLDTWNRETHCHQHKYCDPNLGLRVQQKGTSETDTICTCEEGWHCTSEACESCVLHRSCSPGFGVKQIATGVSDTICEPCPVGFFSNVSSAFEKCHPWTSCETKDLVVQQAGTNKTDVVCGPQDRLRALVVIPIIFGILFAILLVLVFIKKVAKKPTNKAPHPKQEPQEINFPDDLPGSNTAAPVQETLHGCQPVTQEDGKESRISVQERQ

B1: anti-CD40 rAb with H chain C-terminal dockerin (antibody, V domains shown)
VH: EVKLVESGGGLVQPGGSLKLSCATSGFTFSDYYMYWVRQTPEKRLEWVAYINSGGGSTYYPDTVKGRFTISRDNAKNTLYLQMSRLKSEDTAMYYCARRGLPFHAMDYWGQGTSVTVSS
VL: DIQMTQTTSSLSASLGDRVTISCSASQGISNYLNWYQQKPDGTVKLLIYYTSILHSGVPSRFSGSGSGTDYSLTIGNLEPEDIATYYCQQFNKLPPTFGGGTKLEIK
On to B1, for which the binding result was “binds”.

B2: recombinant anti-CD40 rAb (antibody, V domains shown)
VH: B1 VH
VL: B1 VL
As for B2, the binding result was “binds”.
